test: soluble on expression in E. coli; label from the status in PepcDB or PDB records

Sequence	soluble on expression in E. coli
GMAHPPQIRIPATYLRGGTSKGVFFRLEDLPESCRVPGEARDRLFMRVIGSPDPYAAHIDGMGGATSSTSKCVILSKSSQPGHDVDYLYGQVSIDKPFVDWSGNCGNLSTGAGAFALHAGLVDPARIPEDGICEVRIWQANIGKTIIAHVPVSGGQVQETGDFELDGVTFPAAEIVLEFLDPSDDGEDGGAIFPTGNLVDDLEVPGVGTFKATMINAGIPTVFVNAEEIGYRGTELREEINGDPQQLARFERIRVAGALRMGLIKTPEEAATRQHTPKIAFVAPPRDYRTASGKLVAAGDIDLLVRALSMGKLHHAMMGTAAVAIGTAAAIPGTLVNLAAGGGERSAVRFGHPSGTLRVGAEASQANGEWTVTKAIMSRSARILMEGWVRVPGDAF	soluble
MDYQERLKNLPPEVMTAFSESFIFLISNDKVQHFPARDLTQAEMIQRVKEKLGEAVTWSLWQGFVIAVNSEETCVAVLPKYYQLDGFENE	not soluble
MPPLFHPHLVNGPFDDPGLYVDFLFERRAVLFDLGDTAPLPPRKVLRLSHIFVSHTHVDHFIGFDRVVRLCLGREKRLHLLGPPGFVDQVAARLAGYTWNLVETFPTDFTLAAAELHPDGSVHSAEFHCLAAFSRDNERRDRAAGGVLLDEEAFRVRSVFLDHGIPCLAFALEEKNHVHILKNRLREAGLPTGAWLAELKRAILGGRDDGEPFRAWWRDGGKECEAWFPLGELRERFTKTVAGQKIVYVTDAAPTPENRRLIVELAAGADYLFIEAPFLDEERERAGDRCHLTARIAGELGRDAGVARVVPFHFSPRYMGRESLLRDEVERAFRGLEHHHHHH	not soluble
MSLKGTYEKSIHIVKKNKYKTIDVVFGNLKEGIPLAEKSINHGTRIIISRGGTYNMLKATYNIPIVEIKVDAYDIIKSYKEVKNSNEPFGIIGFNNVIYGFDIIEEILNKKITMIEIEKEEEIYDAIEKYRKKGINTYIGDTTVAHIVKRLNCKGILIESREENILRAIQQAEQILEATKDEQKREGHHHHHH	not soluble
MKFTWYGQSCFLIETSRNKKILLDPFNNSIGYPTFKGEADIITVSHHHFDHDFIDCVTNSPKVIDKPGDYKIDDITIKGIPSFHDNVHGAARGENTIFLFNIDGFNVCHLGDIGYVLSDLEVKSLGNVDVLMIPVGGNFTIDGAEAGQLCKKINSNIILPMHYKTTFTILPLEGAEKFIMSMKNAERLQSNVLTLDTKTNEKNQVKIFSIKLEHHHHHH	not soluble
MGSDKIHHHHHHMKGEETLKKALLNIGKESPFYYYVLLGVKLVPSKNTRNLKLSFSTTGDVMLLYNPEAIGKKPLRMVQALLIHEVMHIVLQHFRIKPKDERDRKIWDLAMDAAINQYIPELAAFGVPLDVLVKEGHTTDNDTLFVLPPEWMMFENAEMYHKWILEEMERLGRYDVEVVAEFRDNVDDHSGLFEEDVPVEMILDLTKDRTKKAFNLFGNTLPSGVRREVSLSLENPELDWKTLLRRFFGVSIKADRYTTPLRPNRRYDHLPGWRNEYLPRIAAVVDTSGSIVEKELNQFISELEKISNIAGEELWLVQVDKSVTSAMKYRSGKWKDLEIVGGGSTDLQPAIDYSERVLRSEGTVVFTDGHTDVPIARRRILFVLSRYHNEEFLKEARKMYGRDAVVVLS	not soluble
MSLDLETDVVAGTAERKGSAEGKVEIEDRHVTKVSLPVQVVTGDENTLCYYTAIFDGHDGSSCAQYATVNLHKNLISLYRQIYSTVQRRKFLSVGLEALVKATAKSFFMTDHNFLDSARKSGVEQDAGSTACVVLLFGPDDDGQLKLLTAHAGDTRAVLCRDDRALRLTEDHRPNHKLEQRRVQQNGGEVMNIEGVWRVIFVDRKTNRLFGLATSRALGDRRMKVPKKLVTCQPTLHVYAINFETDLFLVLASDGIWDVLSDEEVVAIVSEHLDKPPQEAARFVIDEAVKRGSEDDKTCTVLFFKWRRDRFPSEGHHHHHH	soluble

— the DeepSol protein solubility set
